Experimental data published in US5591427A, “Human Interleukin-3(Il-3) variants and their use to promote or antagonize IL-3-mediated processes” (Medvet Science Pty. Ltd., priority 1979, dated 1997).

Columns and labels:
[1] = system: chronic myeloid leukaemic (CML) cells; experiment: Proliferation of chronic myeloid leukaemic (CML) cells, [3H] thymidine incorporation; type: cell-based, human
Procedure: (b ) Proliferation of chronic myeloid leukaemic (CML) cells: Primarily CML cells from one patient were selected for their ability to incorporate [^3 H] thymidine in response to IL-3 as described (Lopez el. al., supra ). Briefly, CML cells were placed at 2×10^5 cells/mL fresh medium containing different concentrations of IL-3. Cells were incubated for 24 hours in a flat bottom 96-well NUNCLON plates (2×10^4 cells/well) before being pulsed with [^3 H] thymidine (0.5 μCi/well) for four more hours at 37° C. The cells were then harvested onto glass filters with a Titertek automated cell harvester and counted into a Beckman liquid scintillation counter. Data are expressed in cpm, and each point is the mean of six replicates.

monocytes = experiment: Stimulation of human monocyte adherence (51Cr adhesion assay); type: cell-based
Procedure: (a) Monocyte purification. Monocytes were purified from the peripheral blood of normal donors, obtained from the Adelaide Red Cross Transfusion Service, as previously described (Elliott et. al., 1990, J. Immunol., 145, 167-171). In brief, mononuclear cells were prepared by centrifugation of whole blood on lymphoprep cushions (Nyegaard, Oslo, Norway) and washed twice in HBSS, 0.02% EDTA, 0.1% heat inactivated FCS (Flow Laboratories, North Ryde, Australia) and monocytes were purified in a Beckman J-6M/E elutriator using the Sanderson chamber, a flow rate of 12 ml/min and a constant rotor speed of 2050 rpm. Cells remaining in the chamber after 30 min were collected, washed twice in HBSS, and used immediately. Using these methods, monocyte purity as assessed by morphology and nonspecific-esterase staining was always >90% and usually >95%. The major contaminating cell types were lymphocytes and granulocytes (principally basophils).
(b) Adhesion assay. Adhesion was measured by an isotopic method essentially as described (Elliott et. al., supra). In brief, purified monocytes (0.5 to 1×10^8) were resuspended in 1 ml RPMI 1640 with 0.1% FCS and antibiotics and incubated for 30 min at 37° C. with 500 μCi^51 Cr in the form of sodium chromate (Amersham International., Buckinghamshire, England). Cells were washed thrice in RPMI 1640 and resuspended in culture medium consisting of RPMI 1640, 10% FCS, antibiotics, and 0.2% sodium bicarbonate. For measurement of adhesion, 1 to 2.5×10^5 monocytes were aliquotted per well in 96-well microtitre plates (Nunc, Karnstrup, Denmark) together with stimuli or control medium to a total volume of […], and incubated for the indicated periods. […] At harvest, samples of supernatant were taken to assess spontaneous ^51 Cr release (usually <10% of cell-associated radioactivity), wells were washed three times with RPMI 1640 at 37° C., and residual adherent cells lysed in 10 mM Tris-hydrochloride, and 1% Nonident p40 detergent (Sigma). Lysates were transferred to tubes and counted in a Packard auto-gamma 5650. Percent adherence was calculated according to the formula: [formula]

[2] = target: T1, IL-3 high affinity receptor of monocytes (Homo sapiens, UniProt P26951+P32927); experiment: Competition for 125I-IL-3 binding to the high affinity receptor of monocytes; settings: high affinity receptor on monocytes
T1 construct: endogenous in cells; host or cells: freshly purified human peripheral blood monocytes
T1 sequence (P26951 19-378): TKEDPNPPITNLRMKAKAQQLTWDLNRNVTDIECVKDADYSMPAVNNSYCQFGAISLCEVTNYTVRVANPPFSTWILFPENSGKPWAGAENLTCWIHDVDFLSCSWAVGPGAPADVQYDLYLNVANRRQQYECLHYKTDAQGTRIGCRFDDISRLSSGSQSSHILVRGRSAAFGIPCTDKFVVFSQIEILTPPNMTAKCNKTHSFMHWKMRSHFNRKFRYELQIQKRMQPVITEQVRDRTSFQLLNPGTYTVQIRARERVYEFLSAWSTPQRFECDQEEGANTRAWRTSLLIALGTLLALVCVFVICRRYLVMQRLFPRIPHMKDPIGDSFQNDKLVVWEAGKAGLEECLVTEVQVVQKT
T1 sequence (P32927 17-897): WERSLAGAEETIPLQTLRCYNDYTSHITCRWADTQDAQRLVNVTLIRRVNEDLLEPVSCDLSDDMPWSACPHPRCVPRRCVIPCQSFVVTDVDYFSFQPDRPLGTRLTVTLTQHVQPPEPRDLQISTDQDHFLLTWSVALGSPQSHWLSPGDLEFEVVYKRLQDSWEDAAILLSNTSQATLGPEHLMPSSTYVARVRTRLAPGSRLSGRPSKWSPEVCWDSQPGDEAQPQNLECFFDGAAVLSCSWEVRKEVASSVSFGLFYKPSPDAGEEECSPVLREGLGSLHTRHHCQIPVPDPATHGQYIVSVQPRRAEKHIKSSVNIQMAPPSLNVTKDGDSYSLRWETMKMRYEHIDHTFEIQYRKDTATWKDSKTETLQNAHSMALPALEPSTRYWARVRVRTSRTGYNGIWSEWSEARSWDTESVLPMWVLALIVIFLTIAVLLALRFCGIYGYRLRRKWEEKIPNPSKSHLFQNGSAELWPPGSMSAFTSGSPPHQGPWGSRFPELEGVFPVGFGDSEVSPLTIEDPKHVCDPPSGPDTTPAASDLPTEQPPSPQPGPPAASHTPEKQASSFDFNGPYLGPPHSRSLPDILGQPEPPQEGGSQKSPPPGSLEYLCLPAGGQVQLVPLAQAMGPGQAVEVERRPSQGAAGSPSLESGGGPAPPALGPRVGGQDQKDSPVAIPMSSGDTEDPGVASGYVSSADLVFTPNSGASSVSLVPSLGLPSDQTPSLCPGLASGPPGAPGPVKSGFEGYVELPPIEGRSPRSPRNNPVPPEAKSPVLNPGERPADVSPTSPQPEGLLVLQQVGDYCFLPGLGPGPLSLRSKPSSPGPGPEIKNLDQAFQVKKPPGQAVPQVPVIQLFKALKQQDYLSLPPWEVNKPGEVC
Procedure: (a) Radioiodination of hIL-3: rh IL-3 (gift from Dr. L. Park, Immunex Corporation, Seattle, Wash.) was radioiodinated by the ICI method as previously described (Contreras et. al., supra). Iodinated protein was separated from free ^125 I by chromatography on a Sephadex G-25 PD 10 column (Pharmacia, Uppsala, Sweden) equilibrated in phosphate-buffered saline (PBS) containing 0.02% Tween 20, and stored at 4° C. for up to 4 weeks. Before use, the iodinated protein was purified from Tween and nonprotein-associated radioactivity by cation exchange chromatography on a 0.3-ml CM-Sepharose CL-6B column (Pharmacia) and stored at 4° C. for up to 5 days.
(b) Competition Binding assay. Freshly purified monocytes were suspended in binding medium consisting of RPMI 1640 supplemented with 20 mmol/L/HEPES and 0.5% bovine serum albumin (BSA). […] Cell suspensions were then overlaid on 0.2 mL FCS at 4° C. and centrifuged for 30 seconds at a maximum speed in a Beckman Microfugre 12. The tip of each tube was cut off above the visible cell pellet and counted in a Packard Auto-Gamma 5650 (Downer's Grove, Ill). The results are expressed as Percent competition where 100% is the competition observed in the presence of 100 fold excess native IL-3.

[3] = concentration of IL-3 mutant giving 50% of biological activity compared to that of wild type IL-3

fold higher binding affinity than wild-type IL-3 [2]: 10-15 fold | fold higher binding affinity than wild-type IL-3 ([2]; listed as IL-3 (Ala^101, Val^116)): 16 fold
B1: M37: human IL-3 mutant, Asp 101 replaced by Ala and Lys 116 by Val (protein, UniProt P08700 20-152, looked up, variant D101A K116V)
Interleukin-3: APMTQTTPLKTSWVNCSNMIDEIITHLKQPPLPLLDFNNLNGEDQDILMENNLRRPNLEAFNRAVKSLQNASAIESILKNLLPCLPLATAAPTRHPIHIKAGDWNEFRRKLTFYLVTLENAQAQQTTLSLAIF
stimulation of CML cell proliferation ([1]; FIG. 2, FIG. 8): more potent than the wild type IL-3 | Relative biological activity, PROLIFERATION CML [1, 3]: 1694 | increase in biological activity versus wild type ([1]; summary statement over the functional assays of the Table (colonies, CML, monocyte)): 15-20 fold | stimulation of monocyte adherence (monocytes; FIG. 3): more potent than the wild type IL-3 | Relative biological activity, MONOCYTE (monocytes; [3]): 2100
